Source: US11124558B2, “Use of tetranectin and peptide agonists to treat inflammatory diseases” (The Feinstein Institutes for Medical Research, priority 2017, dated 2021)
“Also recorded” adds a separate entry of the source. Non-standard residues stand in square brackets, D forms with d. No end group written: not given here. Nle = CCCC[C@H](N)C(=O)O

B1: P12: Recombinant N-terminal deletion mutant of TN, residue 45-181, carbohydrate recognition domain (CRD), expressed in E. coli, SEQ ID NO:12 (protein, listed as Homo sapiens)
chain: ALQTVCLKGTKVHMKCFLAFTQTKTFHEASEDCISRGGTLGTPQTGSENDALYEYLRQSVGNEAEIWLGLNDMAAEGTWVDMTGARIAYKNWETEITAQPDGGKTENCAVLSGAANGKWFDKRCRDQLPYICQFGIV

Columns and labels:
[1] = test system: lethal sepsis (CLP), Balb/C mice; assay: Lethal sepsis by cecal ligation and puncture (CLP), survival in mice; format: in vivo; conditions: male Balb/C mice, given intraperitoneally, survival monitored more than two weeks
Description: FIG. 6A-6C: Recombinant TN protected mice against lethal endotoxemia and sepsis. Male Balb/C mice were subjected to lethal endotoxemia (LPS, 5 mg/kg, i.p., Panel A) or sepsis by cecal ligation and puncture (CLP, Panel B, C), and recombinant TN produced in HEK293 (Panel A, B) or E. coli (Panel C) was given intraperitoneally at indicated dosing regimens. Animal survival rates were monitored for more than two weeks to ensure no later death. Shown in Panel B and C is a summary of two independent experiments with similar results.
(§1) FIG. 9: N-terminal deletion TN mutant protected mice against lethal sepsis. Male Balb/C mice were subjected to lethal sepsis by cecal ligation and puncture (CLP), and recombinant deletion mutant (ΔTN) was given intrapeitoneally at indicated dosing regimens. Animal survival rates were monitored for more than two weeks to ensure no later death. Shown was a summary of two independent experiments with similar results.
as §1, with “10:” for “9: N-terminal deletion”, “peptide agonist (P11)” for “mutant”, “TN peptide agonist, (P11, […]) (SEQ ID NO:11)” for “recombinant deletion mutant (ΔTN)”, “N=8-18 animals per group.” for “similar results.”
FIG. 13A-13B: Tetranectin peptide agonists (P2 and P2-M/Nle) protected mice against lethal sepsis. Male Balb/C mice were subjected to lethal sepsis by cecal ligation and puncture (CLP), and TN peptide agonist, P2 (55-KVHMKCFLAFTQTKTF-70) (13A) (SEQ ID NO:2) or P2-M/Nle (54-TKVH(Nle)KSFLAFTQTKT-69) (13B) (SEQ ID NO:13) was given intraperitoneally at indicated dosing regimens. Animal survival rates were monitored for more than two weeks to ensure no later death. Shown was a summary of independent experiment with N=10 animals per group. The Kaplan-Meier method was used to compare the difference in mortality rates between groups. *, P<0.05 versus “CLP+Vehicle” group.
Effects of TN or peptide agonist on LSI. Balb/C mice (both male and female, 7-8 weeks, 20-25 g) are subjected to lethal endotoxemia or sepsis as described above, and the recombinant TN is injected (i.p.) at various doses and time points (2, 24, and 48 h) after the onset of endotoxemia or sepsis. Their effects on the outcomes of LSI is assessed by comparing the long-term (two-week) survival rates between the TN-treated groups with saline vehicle-treated controls. By varying the time points (e.g., 2, 12, 24 or 36 h) when the first dose of TN will be given to animals, the therapeutic windows for the TN-based therapy is estimated. […] It will be critical to continue these exciting experiments using other dosing regimens to further validate TN's protective role in LSI.
To explore the therapeutic potential of the TN-based strategies, the efficacy of TN-specific peptide agonists that would recapitulate the HMGB1-inhibiting capacities is tested using both animal models of lethal endotoxemia and sepsis. A series of peptide agonists have been designed, and chemically synthesized or biologically expressed as recombinant peptide (Table 1, FIG. 7). Peptide agonists will be given to the endotoxemic or septic mice intraperitoneally at various doses and time points after the onset of endotoxemia or sepsis. Their effects on the outcomes of LSI is assessed by comparing the long-term (two-week) survival rates between the peptide agonist groups and the saline vehicle-treated controls.
TN-specific peptide agonists are tested that would recapitulate the HMGB1-inhibiting capacities using both animal models of lethal endotoxemia and sepsis. Peptide agonists are given to the endotoxemic or septic mice intraperitoneally at various doses and time points after the onset of endotoxemia or sepsis. […]

[2] = test system: GRO/CXCL1 and ENA-78/CXCL5 secretion, HuPBMCs; assay: Cytokine/chemokine secretion by HuPBMCs (Cytokine Antibody Arrays); format: cell-based; conditions: primary human monocytes / HuPBMCs, TN 20 μg/ml, 16 h
Description: Human blood was purchased from the Long Island Blood Bank, and HuPBMCs were isolated by density gradient centrifugation through Ficoll, and stimulated with recombinant TN (20 μg/ml) expressed in HEK293 or E. coli for 16 h. The extracellular levels of cytokines and chemokines were determined by Cytokine Antibody Arrays.
In light of the protective roles of these neutrophil-attracting chemokines, CXCL1/KC [67,68] and CXCL5/ENA-78 [69,70] in LSI, it is important to determine whether TN could modulate leukocyte infiltration to facilitate potential pathogen elimination during sepsis.

HMGB1 release = assay: LPS/SAA-induced HMGB1 release, summary statement (cells not specified); format: cell-based
[3] = test system: HMGB1 release, murine macrophage-like RAW264.7 cells; assay: SAA-induced HMGB1 release in RAW264.7 cells (Western blotting); format: cell-based; conditions: 16 h, serum-free OPTI-MEM I
Description: Murine macrophage-like RAW264.7 cells were cultured in serum-free OPTI-MEM I medium, and stimulated with SAA in the absence of presence of ΔTN (residue 45-181) for 16 h at the indicated concentrations. The extracellular HMGB1 levels were determined by Western blotting, and expressed as % of stimulation in the presence of SAA alone.

Row | Molecule | protection against lethal sepsis (animal survival) [1] | release of neutrophil-attracting chemokines (CXCL1/GRO-α/KC and CXCL5/ENA-78) [2] | protection against lethal sepsis (animal survival) ([1]; listed as synthetic peptide corresponding to the plasminogen-binding region (residue 143-1)) | attenuation of LPS/SAA-induced HMGB1 release (HMGB1 release) | inhibition of SAA-induced HMGB1 release [3] | inhibition of SAA-induced HMGB1 release ([3]; listed as ΔTN) | protection against lethal sepsis (animal survival) ([1]; listed as N-terminal deletion mutant of TN) | protection against lethal sepsis (animal survival) ([1]; listed as ΔTN)
1 | KVHMKCFLAFTQTKTF (listed as Homo sapiens) [Peptide P2] | protected | – | – | – | – | – | – | –
2 | QPDGGKTENCAVLSGAANGKWFDKRCRD (listed as Homo sapiens) [Peptide P11] | protected; also recorded: significant protection | specifically stimulated | dose-dependent and significant protection | dose-dependently attenuated | – | – | – | –
3 | TKVH(Nle)KSFLAFTQTKT (TKVH[Nle]KSFLAFTQTKT) [P2-M/Nle] | protected | – | – | – | – | – | – | –
4 | B1 | significant protection | specifically stimulated | – | dose-dependently attenuated | dose-dependently attenuated | dose-dependently inhibited | significant protection | protected
